Where two headings read alike, the source gives them in different places.
T1: FcgRIIa H (human, UniProt P12318)
T1 chain: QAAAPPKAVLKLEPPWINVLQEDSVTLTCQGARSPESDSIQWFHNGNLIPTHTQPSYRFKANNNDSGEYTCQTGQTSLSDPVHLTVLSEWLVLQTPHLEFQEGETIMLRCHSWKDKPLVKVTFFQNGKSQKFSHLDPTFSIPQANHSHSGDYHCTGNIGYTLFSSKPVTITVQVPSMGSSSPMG

T2: FcgRIIa R (human, UniProt P12318)
T2 chain: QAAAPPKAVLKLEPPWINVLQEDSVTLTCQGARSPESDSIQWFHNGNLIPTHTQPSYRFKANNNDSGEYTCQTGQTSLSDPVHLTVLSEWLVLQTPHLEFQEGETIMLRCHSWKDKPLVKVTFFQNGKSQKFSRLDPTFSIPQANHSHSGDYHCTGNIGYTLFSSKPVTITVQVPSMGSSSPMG

T3: FcgRIa (human, UniProt P12314)
T3 chain: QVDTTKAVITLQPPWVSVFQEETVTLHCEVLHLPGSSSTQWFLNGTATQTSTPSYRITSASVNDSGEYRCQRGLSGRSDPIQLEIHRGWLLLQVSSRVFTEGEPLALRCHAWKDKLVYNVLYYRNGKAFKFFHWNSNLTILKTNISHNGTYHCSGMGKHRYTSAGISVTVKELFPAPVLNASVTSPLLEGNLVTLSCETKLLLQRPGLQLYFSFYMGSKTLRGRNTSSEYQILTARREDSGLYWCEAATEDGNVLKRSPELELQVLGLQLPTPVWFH

T4: FcgRIIb (human, UniProt P31994)
T4 chain: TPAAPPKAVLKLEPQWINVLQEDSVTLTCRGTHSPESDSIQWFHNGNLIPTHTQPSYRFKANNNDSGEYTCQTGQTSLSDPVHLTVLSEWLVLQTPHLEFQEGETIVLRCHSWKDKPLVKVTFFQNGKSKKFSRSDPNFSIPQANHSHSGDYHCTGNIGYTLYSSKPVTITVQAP


Columns and labels:
Assay in all cases: SPR
FcgRIIIa V [1] = target: T5, FcgRIIIa V (human, UniProt P08637)
T5 sequence (P08637 17-208 F176V): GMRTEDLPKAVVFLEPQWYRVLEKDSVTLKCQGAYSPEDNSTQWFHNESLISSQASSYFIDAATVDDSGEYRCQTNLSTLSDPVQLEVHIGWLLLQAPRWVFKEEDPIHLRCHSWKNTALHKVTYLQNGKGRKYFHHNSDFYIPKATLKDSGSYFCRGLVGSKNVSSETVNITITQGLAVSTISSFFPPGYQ

FcgRIIa H = target: T1, FcgRIIa H
FcgRIIa R = target: T2, FcgRIIa R
FcgRIa = target: T3, FcgRIa
FcgRIIb = target: T4, FcgRIIb
FcgRIIIa V [2] = target: T5, FcgRIIIa V; remark: listed apart in the source
FcgRIIIa F = FcgRIIIa F (human, UniProt P08637)
Chain of FcgRIIIa F (P08637 17-208): as the sequence (P08637 17-208 F176V) above, with V160F counted along it

Kd (FcgRIIIa V [1]) [nM] | Kd (FcgRIIa H) [nM] | Kd (FcgRIIa R) [nM] | Kd (FcgRIa) [nM] | Kd (FcgRIIb) [nM] | Kd (FcgRIIIa V [2]) [nM] | Kd (FcgRIIIa F) [nM] | Binder
400 | 860 | 2.3 | 0.05 | 8.9 | 7100 |  | IL6R-BP253/IL6R-L (antibody) chain 1: QVQLQESGPGLVKPSETLSLTCAVSGHSISHDHAWSWVRQPPGEGLEWIGFISYSGITNYNPSLQGRVTISRDNSKNTLYLQMNSLRAEDTAVYYCARSLARTTAMDYWGEGTLVTVSSASTKGPSVFPLAPSSKSTSGGTAALGCLVKDYFPEPVTVSWNSGALTSGVHTFPAVLQSSGLYSLSSVVTVPSSSLGTQTYICNVNHKPSNTKVDKKVEPKSCDKTHTCPPCPAPELLGGPSVFLFPPKPKDTLMISRTPEVTCVVVDVEHEDPEVKFNWYVDGVEVHNAKTKPREEQYNSTYRVVSVLTVLHQDWLNGKEYKCKVSNKAFPAPIEKTISKAKGQPREPQVYTLPPSRDELTKNQVSLTCLVKGFYPSDIAVEWESNGQPENNYKTTPPVLDSDGSFFLYSKLTVDKSRWQQGNVFSCSVMHEALHNHYTQESLSLSP chain 2: not shown
 |  |  |  |  |  | 11 | GpH7-A53/GpH7-B78/GpL16-k0 (antibody) chain 1: QVQLVQSGAEVKKPGASVTVSCKASGYTFTDYEMHWIRQPPGEGLEWIGAIDPKTGDTAYSESFQDRVTLTADKSTSTAYMELSSLTSEDTAVYYCTRFYSYTYWGQGTLVTVSSASTKGPSVFPLAPSSKSTSGGTAALGCLVKDYFPEPVTVSWNSGALTSGVHTFPAVLQSSGLYSLSSVVTVPSSSLGTQTYICNVNHKPSNTKVDKKVEPKSCDKTHTCPPCPAPELLGGPDVFLFPPKPKDTLMISRTPEVTCVVVDVSHEDPEVKFNWYVDGVEVHNAKTKPREEQYNSTYRVVSVLTVLHQDWLNGKEYKCKVSNKALPAPIEKTISKAKGQPREPQVYTLPPSRKELTKNQVSLTCLVKGFYPSDIAVEWESNGQPENNYKTTPPVLDSDGSFFLYSKLTVDKSRWQQGNVFSCSVMHEALHNRYTQKSLSLSP chain 2: QVQLVQSGAEVKKPGASVTVSCKASGYTFTDYEMHWIRQPPGEGLEWIGAIDPKTGDTAYSESFQDRVTLTADKSTSTAYMELSSLTSEDTAVYYCTRFYSYTYWGQGTLVTVSSASTKGPSVFPLAPSSKSTSGGTAALGCLVKDYFPEPVTVSWNSGALTSGVHTFPAVLQSSGLYSLSSVVTVPSSSLGTQTYICNVNHKPSNTKVDKKVEPKSCDKTHTCPPCPAPELLGGPDVFLFPPKPKDTLMISRTPEVTCVVVDVSHEDPEVKFNWYVDGVEVHNAKTKPREEQYNSTYRVVSVLTVLHQDWLNGKEYKCKVSNKALPLPEEKTISKAKGQPREPQVYTLPPSRDELTKNQVSLTCLVKGFYPSDIAVEWESNGQPENNYKTTPPVLDSDGSFFLYSKLTVDKSRWQQGNVFSCSVMHEALHNHYTQESLSLSP chain 3: DIVMTQSPLSLPVTPGEPASISCQASESLVHSNRNTYLHWYLQKPGQSPQLLIYKVSNRFSGVPDRFSGSGSGTDFTLKISRVEAEDVGVYYCSQNTHVPPTFGQGTKVEIERTVAAPSVFIFPPSDEQLKSGTASVVCLLNNFYPREAKVQWKVDNALQSGNSQESVTEQDSKDSTYSLSSTLTLSKADYEKHKVYACEVTHQGLSSPVTKSFNRGEC
